Reference: patent publication US20160115500A1 (University of California, published 2016)
Numbering of substitutions follows the chain as printed. Names and notes keep the numbering of the source.

T1: GAL4 activation domain fusion (ACT) to HAB1 (UniProt Q9CAJ0 23-511, limits assumed)
T1 construct: pACT-HAB1 fusion in yeast reporter strains; also called pACT-HAB1
T1 sequence (looked up): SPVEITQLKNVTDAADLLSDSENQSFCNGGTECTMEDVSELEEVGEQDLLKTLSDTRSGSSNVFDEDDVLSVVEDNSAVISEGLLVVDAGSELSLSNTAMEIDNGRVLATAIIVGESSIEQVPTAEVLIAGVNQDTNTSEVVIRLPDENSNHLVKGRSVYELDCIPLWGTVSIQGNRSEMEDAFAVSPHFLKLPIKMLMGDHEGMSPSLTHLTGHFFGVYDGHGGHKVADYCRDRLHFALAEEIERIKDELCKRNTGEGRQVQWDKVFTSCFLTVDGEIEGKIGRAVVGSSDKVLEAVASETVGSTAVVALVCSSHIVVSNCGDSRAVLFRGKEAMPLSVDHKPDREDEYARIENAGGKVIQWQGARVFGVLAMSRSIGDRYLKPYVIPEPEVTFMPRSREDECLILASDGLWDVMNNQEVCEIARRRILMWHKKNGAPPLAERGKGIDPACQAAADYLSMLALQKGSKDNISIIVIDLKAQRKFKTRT

B1: PYR1^Y58H,K59R,V81I,F108A,S122G,V164I (receptor, not shown: small tags and cut ends)
chain: MPSELTPEERSELKNSIAEFHTYQLDPGSCSSLHAQRIHAPPELVWSIVRRFDKPQTHRHFIKSCSVEQNFEMRVGCTRDIIVISGLPANTSTERLDILDDERRVTGASIIGGEHRLTNYKGVTTVHRFEKENRIWTVVLESYVVDMPEGNSEDDTRMFADTVIKLNLQKLATVAEAMARNSGDGSGSQVT
notes: pBD-PYR1 fusion in yeast
B2: PYR1^K59R,E94D (receptor, not shown: small tags and cut ends)
chain: B1 chain with H58Y, I81V, E94D, A108F, G122S, I164V
notes: pBD-PYR1 fusion in yeast
B3: PYR1^K59R,F108I (receptor, not shown: small tags and cut ends)
chain: B1 chain with H58Y, I81V, A108I, G122S, I164V
notes: pBD-PYR1 fusion in yeast
B4: PYR1^K59R,F108A,S122G,F159L (receptor)
chain: B1 chain with H58Y, I81V, F159L, I164V
notes: pBD-PYR1 fusion in yeast
B5: PYR1^K59R,F108I,S122G (receptor, not shown: small tags and cut ends)
chain: B1 chain with H58Y, I81V, A108I, I164V
notes: pBD-PYR1 fusion in yeast
B6: PYR1^K59R,F108C (receptor, not shown: small tags and cut ends)
chain: B1 chain with H58Y, I81V, A108C, G122S, I164V
notes: pBD-PYR1 fusion in yeast
B7: PYR1^K59R,E94A,Y120A (receptor, not shown: small tags and cut ends)
chain: B1 chain with H58Y, I81V, E94A, A108F, Y120A, G122S, I164V
notes: pBD-PYR1 fusion in yeast
B8: PYR1^K59R,E94A,N167C (receptor, not shown: small tags and cut ends)
chain: B1 chain with H58Y, I81V, E94A, A108F, G122S, I164V, N167C
notes: pBD-PYR1 fusion in yeast
B9: PYR1^K59R,F108A,S122G,V81C (receptor, not shown: small tags and cut ends)
chain: B1 chain with H58Y, I81C, I164V
notes: pBD-PYR1 fusion in yeast
B10: PYR1^K59R,E94S (receptor, not shown: small tags and cut ends)
chain: B1 chain with H58Y, I81V, E94S, A108F, G122S, I164V
notes: pBD-PYR1 fusion in yeast
B11: PYR1^K59R,Y120G (receptor, not shown: small tags and cut ends)
chain: B1 chain with H58Y, I81V, A108F, Y120G, G122S, I164V
notes: pBD-PYR1 fusion in yeast
B12: PYR1^K59R,F108V (receptor, not shown: small tags and cut ends)
chain: B1 chain with H58Y, I81V, A108V, G122S, I164V
notes: pBD-PYR1 fusion in yeast
B13: PYR1^K59R,Y120F (receptor, not shown: small tags and cut ends)
chain: B1 chain with H58Y, I81V, A108F, Y120F, G122S, I164V
notes: pBD-PYR1 fusion in yeast
B14: PYR1^K59R,F108A,S122G,V164I (receptor)
chain: B1 chain with H58Y, I81V
notes: pBD-PYR1 fusion in yeast
B15: PYR1^K59R,F108A,S122G,V83L (receptor)
chain: B1 chain with H58Y, I81V, V83L, I164V
notes: pBD-PYR1 fusion in yeast
B16: PYR1^K59R,F108T (receptor, not shown: small tags and cut ends)
chain: B1 chain with H58Y, I81V, A108T, G122S, I164V
notes: pBD-PYR1 fusion in yeast
B17: PYR1^K59R,F108A,S122G,F159V (receptor)
chain: B1 chain with H58Y, I81V, F159V, I164V
notes: pBD-PYR1 fusion in yeast
B18: PYR1^Y58H,K59R,V81I,F108A,S122G (receptor)
chain: B1 chain with I164V
notes: pBD-PYR1 fusion in yeast
B19: PYR1^K59R,F108A,S122G,V81T (receptor, not shown: small tags and cut ends)
chain: B1 chain with H58Y, I81T, I164V
notes: pBD-PYR1 fusion in yeast
B20: PYR1^K59R,A160C (receptor, not shown: small tags and cut ends)
chain: B1 chain with H58Y, I81V, A108F, G122S, A160C, I164V
notes: pBD-PYR1 fusion in yeast
B21: PYR1^K59R,N167V (receptor, not shown: small tags and cut ends)
chain: B1 chain with H58Y, I81V, A108F, G122S, I164V, N167V
notes: pBD-PYR1 fusion in yeast
B22: PYR1^K59R,V164S (receptor, not shown: small tags and cut ends)
chain: B1 chain with H58Y, I81V, A108F, G122S, I164S
notes: pBD-PYR1 fusion in yeast
B23: PYR1^K59R,F108S (receptor)
chain: B1 chain with H58Y, I81V, A108S, G122S, I164V
notes: pBD-PYR1 fusion in yeast
B24: PYR1^K59R,Y120A,E141Y (receptor, not shown: small tags and cut ends)
chain: B1 chain with H58Y, I81V, A108F, Y120A, G122S, E141Y, I164V
notes: pBD-PYR1 fusion in yeast
B25: PYR1^K59R,F108G (receptor, not shown: small tags and cut ends)
chain: B1 chain with H58Y, I81V, A108G, G122S, I164V
notes: pBD-PYR1 fusion in yeast
B26: PYR1^K59R,Y120A,N167C (receptor, not shown: small tags and cut ends)
chain: B1 chain with H58Y, I81V, A108F, Y120A, G122S, I164V, N167C
notes: pBD-PYR1 fusion in yeast
B27: PYR1^K59R,A89C (receptor, not shown: small tags and cut ends)
chain: B1 chain with H58Y, I81V, A89C, A108F, G122S, I164V
notes: pBD-PYR1 fusion in yeast

Columns and labels:
[1] = biological target: T1, GAL4 activation domain fusion (ACT) to …; assay: yeast two-hybrid, X-gal; lowest mandipropamid concentration giving signal
[2] = biological target: T1, GAL4 activation domain fusion (ACT) to …; assay: yeast two-hybrid, X-gal; lowest dichlobenil concentration giving signal
[3] = biological target: T1, GAL4 activation domain fusion (ACT) to …; assay: yeast two-hybrid, X-gal; lowest fludioxonil concentration giving signal
[4] = biological target: T1, GAL4 activation domain fusion (ACT) to …; assay: yeast two-hybrid, X-gal; lowest benzothiadiazole concentration giving signal

Binder	Threshold [1]	Threshold [3]	other results
B1	0.01 µM		
B2		100 µM	Threshold [2]: 100 µM
B3	100 µM		
B4	0.05 µM		
B5	10 µM		
B6	100 µM		
B7		10 µM	
B8		10 µM	
B9	0.25 µM		
B10		100 µM	
B11		100 µM	
B12	100 µM		
B13		100 µM	
B14	0.25 µM		
B15	0.05 µM		
B16	100 µM		
B17	0.25 µM		
B18	0.05 µM		
B19	0.25 µM		
B20		100 µM	Threshold [2]: 100 µM
B21		100 µM	
B22			Threshold [2]: 100 µM
B23	100 µM		
B24		10 µM	
B25	100 µM		
B26		10 µM	
B27			Threshold [4]: 100 µM
